These results are taken from paper PMC6389977, “Dengue virus nonstructural 3 protein interacts directly with human glyceraldehyde-3-phosphate dehydrogenase (GAPDH) and reduces its glycolytic activity” (Scientific Reports, 2019).

B2: purified recombinant human GAPDH protein (enzyme)
chain: not shown
notes: also called glyceraldehyde-3-phosphate dehydrogenase

In experiment [1] the target is B2. As to the kind of experiment: SPR; unpublished data; no conditions told; the estimate is given together with the ELISA result of ref. 39.
Experiment [2] addresses T1, recombinant full-length DENV2 NS3 protein (dengue virus 2, New Guinea C (NGC) …, UniProt P14340 1476-2093).
T1 construct: also called full-length NS3
The experiment is described as follows: SPR. The note with it: both partners purified.

T1 sequence (P14340 1476-2093): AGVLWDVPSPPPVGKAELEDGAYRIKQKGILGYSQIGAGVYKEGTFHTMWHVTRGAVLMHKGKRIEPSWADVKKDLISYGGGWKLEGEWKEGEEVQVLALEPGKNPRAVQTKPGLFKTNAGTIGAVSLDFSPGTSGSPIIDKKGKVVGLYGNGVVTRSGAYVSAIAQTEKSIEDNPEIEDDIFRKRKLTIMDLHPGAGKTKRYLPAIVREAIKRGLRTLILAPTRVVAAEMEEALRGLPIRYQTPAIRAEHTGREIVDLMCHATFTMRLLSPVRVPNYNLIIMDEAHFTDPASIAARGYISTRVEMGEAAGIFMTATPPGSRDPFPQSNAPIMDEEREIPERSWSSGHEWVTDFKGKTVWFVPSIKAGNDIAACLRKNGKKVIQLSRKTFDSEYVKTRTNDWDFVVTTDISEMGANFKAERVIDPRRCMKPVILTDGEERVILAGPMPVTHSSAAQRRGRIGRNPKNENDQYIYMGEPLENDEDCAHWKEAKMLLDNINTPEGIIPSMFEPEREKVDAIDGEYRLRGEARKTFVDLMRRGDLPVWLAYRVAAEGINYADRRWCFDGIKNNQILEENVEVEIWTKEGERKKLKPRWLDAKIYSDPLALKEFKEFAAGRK

B1: DENV2 NS1 protein (natural protein)
chain: DSGCVVSWKNKELKCGSGIFITDNVHTWTEQYKFQPESPSKLASAIQKAHEEGICGIRSVTRLENLMWKQITPELNHILSENEVKLTIMTGDIKGIMQAGKRSLQPQPTELKYSWKTWGKAKMLSTESHNQTFLIDGPETAECPNTNRAWNSLEVEDYGFGVFTTNIWLKLREKQDVFCDSKLMSAAIKDNRAVHADMGYWIESALNDTWKIEKASFIEVKSCHWPKSHTLWSNGVLESEMIIPKNFAGPVSQHNYRPGYHTQTAGPWHLGKLEMDFDFCEGTTVVVTEDCGNRGPSLRTTTASGKLITEWCCRSCTLPPLRYRGEDGCWYGMEIRPLKEKEENLVNSLVTA
In the case of B1, the Kd in experiment [1] is 2000 to 3000 nM.
In the case of B2, the Kd in experiment [2] came out at 310 nM.
